Measurements reported in patent publication US20100092488A1.

Target: T1, MK (endogenous, in the culture of CD4-positive T cells from wild-type murine spleens with APC) (UniProt P12025)
T1 sequence (looked up): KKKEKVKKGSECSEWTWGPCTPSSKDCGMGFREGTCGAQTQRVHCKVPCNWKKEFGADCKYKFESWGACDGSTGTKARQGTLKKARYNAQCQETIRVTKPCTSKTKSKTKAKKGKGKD
Experiment: cell-based or functional assay

proportion of CD4-positive, CD25-positive T cells among the CD4-positive T cells (flow cytometer; IP-13 30 µg/mL, MOG35-55 and APC, five days): 4%
B1: anti-MK antibody (IP-13) (antibody, from another filing, V domains shown)
VH: EVQLQQSGPELVKPGASVKIPCKASGYTFTDYNMGWVKQSHGKSLEWIGDINPNNGGTIYNQKFKGKATLTVDKSSSTAYMELRSLTSEDTAVYYCARWSYSNPYFDYWGQGTTLTVSS
VL: SIVMTQTPNFLLVSAGDRVTITCKASQSVSNDVSWYQQKPGQSPKLLIYYASNLYTGVPDRFTGSGYGTDFTFTISTVQAEDLAVYFCQQDYSSPWTFGGGTKLEIK
